From US20110076705A1

Target: 2D9-binding PAGs (immuno-affinity purified PAGs used as ELISA standards)
Test: sandwich ELISA on 2D9-coated plates with immuno-affinity purified PAG standards, log-logit transformation, SoftMax

Kd: 0.9 nM
B1: monoclonal antibody 2D9 (antibody, mouse IgG1, kappa, V domains shown)
VH: QVQLQQSGAELMKPGASVKISCKATGYIFSNYWMEWVKQRPGHGLEWIGEILPGSDITNYNEKFKDKATFTADSSSNTAYMQLSSLTSEDSAVYYCARAGSGYYGVYYYAMDYWGQGTSVTVSS
VL: DVLMTQTPLSLPVSLGDQASISCRSRQSIVHSNGNTYLEWFLQKPGQSPKLLIYKVSNRFSGVPDRFSGSGSGTDFTLKISRVEAEDLGVYYCFQGSHVPLTFGAGTKLELKR
